Data on eight molecules can be found in patent US20220251194A1 (Merck Sharp & Dohme, published 2022).

Experiment [1] addresses T1, polyhistidine-tagged human PD-1 (hPD1-His, 98AFK) (human, UniProt Q15116 25-167, limits assumed).
T1 construct: also called human PD1-His; Human PD-1-His
The experiment is described as follows: SPR (Biacore T200), mAb captured on anti-Fc chip, hPD1-His as analyte. Here is the method: (§1) A surface plasmon resonance (SPR)-based assay utilizing capture mode was used to determine the binding kinetics and affinities of anti-PD-1 antibodies against polyhistidine-tagged human PD-1 (hPD1-His, 98AFK). Following manufacture instructions, a series S sensor chip CM5 (GE Healthcare, BR100530) was activated using an amine-coupling kit (GE Healthcare, BR100050). Either human capture kit (anti-human Fc, 25 μg/mL, GE Healthcare, BR100839) or mouse capture kit (anti-mouse Fc, 30 μg/mL, GE Healthcare, BR100838) antibody diluted in the supplied pH 5.0, 10 mM sodium acetate buffer was immobilized onto the activated surface for 7 minutes. After immobilization, surfaces were deactivated with 1M ethanolamine/HCl (pH 8.5) for 7 minutes.
(§2) Binding kinetics were measured on a biacore T200 in HBS-EP+ (0.01 M HEPES pH 7.4, 0.15 M NaCl, 3 mM EDTA, 0.05% v/v Surfactant P20) running buffer at 25° C. Antibodies were captured either on mouse or human Fc capture surfaces at 10 μL/min flow rate. Antibodies were captured on flow cells 2, 3 and 4. Flow cell 1 was used as a reference with no antibody captured. A 6-point, 2-fold serial dilutions of the analyte 98AFK (hPD1-His), starting at 20 nM, were prepared in the running buffer (HBS-EP+). Two buffer blanks were included for double referencing. Titration series were injected for 3 minutes at 50 μl/min followed by 600 seconds of dissociation. After each cycle, surfaces were regenerated with a 30 second injection of 3M MgCl₂ at […] on the anti-human Fc chip or 180 seconds of 10 mM Glycine pH 1.7 at 10 μl/min on the anti-mouse Fc chip.
(§3) Sensorgram processing and data analysis were performed with Biacore T200 Evaluation Software Version 2.0.4 (GE Healthcare). […] Processed curves were globally fitted to a 1:1 binding model to determine the association rate constant, kₒₙ (M⁻¹s⁻¹, where “M” equals molar and “s” equals seconds) and the dissociation rate constant, koff (s⁻¹). These rate constants were used to calculate the equilibrium dissociation constant, KD (M)=koff/kₒₙ.
(In SPR one partner is held on a chip, and binding of the other changes the refractive index at the surface.)

Experiment [2] deals with T1, polyhistidine-tagged human PD-1 …. Kind of experiment: SPR (Biacore T200), mAb captured on anti-Fc chip; reference Mouse 08A. Here is the method: as §1, §2, §3

T1 sequence (Q15116 25-167 limits assumed): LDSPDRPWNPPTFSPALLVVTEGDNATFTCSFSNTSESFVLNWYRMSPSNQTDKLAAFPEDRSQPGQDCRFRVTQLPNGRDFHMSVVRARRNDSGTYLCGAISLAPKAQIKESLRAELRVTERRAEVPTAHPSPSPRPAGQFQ

B1: Humanized 08A IgG4 (antibody, V domains shown)
VH: EVQLVQSGAEVKKPGASVKVSCKASGYTFTSYYLYWVRQAPGQGLEWIGGVNPSNGGTNFSEKFKSRVTLTVDTSISTAYMELSRLRSDDTAVYYCTRRDSNYDGGFDYWGQGTTVTVSS
VL: DIVMTQTPLSLSVTPGQPASISCRASKSVSTSGFSYLHWYLQKPGQPPQLLIFLASNLESGVPDRFSGSGSGTDFTLKISRVEAEDVGVYYCQHSWELPLTFGQGTKLEIKR
notes: IgG4 S228P / kappa; also called 73AGG; Humanized x [PD-1_H] mAb (08A/HuPD1A-11 S228P) IgG4 / Kappa
What is called Kd is the constant that tells how readily two partners part at equilibrium. B1: binding in experiment [1] was characterised by a dissociation constant (Kd) of 0.14 nM. Also, the “KD (REF)/KD” value in experiment [2] was 1.7.

B2: Humanized 08A IgG4 S61N N55E (antibody, V domains shown)
VH: EVQLVQSGAEVKKPGASVKVSCKASGYTFTSYYLYWVRQAPGQGLEWIGGVNPSEGGTNFNEKFKSRVTLTVDTSISTAYMELSRLRSDDTAVYYCTRRDSNYDGGFDYWGQGTTVTVSS
VL: DIVMTQTPLSLSVTPGQPASISCRASKSVSTSGFSYLHWYLQKPGQPPQLLIFLASNLESGVPDRFSGSGSGTDFTLKISRVEAEDVGVYYCQHSWELPLTFGQGTKLEIKR
notes: IgG4 S228P / kappa; also called 50AQK; Humanized x [PD-1_H] mAb (08A/HuPD1A-11 N55E S228P) IgG4 / Kappa
In the case of B2, the affinity in experiment [1], expressed as Kd, was 0.3 nM. Also, in experiment [2], the “KD (REF)/KD” value was 0.8.

B3: Humanized 08A IgG4 S61N (lot 67AGG) (antibody)
heavy: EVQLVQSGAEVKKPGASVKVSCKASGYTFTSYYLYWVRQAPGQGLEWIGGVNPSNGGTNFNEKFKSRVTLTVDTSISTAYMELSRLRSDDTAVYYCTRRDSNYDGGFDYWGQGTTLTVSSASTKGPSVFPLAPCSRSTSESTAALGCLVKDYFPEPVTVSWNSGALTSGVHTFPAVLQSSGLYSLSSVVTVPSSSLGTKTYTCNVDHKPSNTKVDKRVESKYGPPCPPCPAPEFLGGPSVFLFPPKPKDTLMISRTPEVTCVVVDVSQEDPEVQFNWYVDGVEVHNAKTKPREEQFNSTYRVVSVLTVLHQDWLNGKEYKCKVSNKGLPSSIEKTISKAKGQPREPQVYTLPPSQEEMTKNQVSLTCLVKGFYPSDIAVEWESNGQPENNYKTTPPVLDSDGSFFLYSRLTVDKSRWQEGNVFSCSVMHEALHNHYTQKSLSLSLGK
light: DIVMTQTPLSLSVTPGQPASISCRASKSVSTSGFSYLHWYLQKPGQPPQLLIFLASNLESGVPDRFSGSGSGTDFTLKISRVEAEDVGVYYCQHSWELPLTFGQGTKLEIKRTVAAPSVFIFPPSDEQLKSGTASVVCLLNNFYPREAKVQWKVDNALQSGNSQESVTEQDSKDSTYSLSSTLTLSKADYEKHKVYACEVTHQGLSSPVTKSFNRGEC
notes: IgG4 S228P / kappa; Differs from lot 98AIO by an HFR4 mutation; also called Humanized x [PD-1_H] mAb (08A/HuPD1A-11 S61N WT) S228P IgG4 / Kappa, with HFR4 mutation
The molecule B3 gave a Kd in experiment [1] of 0.045 nM. Also, the “KD (REF)/KD” value in experiment [2] was 5.2.

B4: Mouse 09A (antibody, mouse IgG1, kappa, V domains shown)
VH: QVQLQQPGAELVKPGTSVKLSCKASGYTFTNYYMYWVKQRPGQGLEWIGGINPSNGGTNFNEKFKNKATLTVDSSSSTTYMQLSSLTSEDSAVYYCTRRDYRFDMGFDYWGQGTTLTVSS
VL: DIVLTQSPASLAVSLGQRAAISCRASKGVSTSGYSYLHWYQQKPGQSPKLLIYLASYLESGVPARFSGSGSGTDFTLNIHPVEEEDAATYYCQHSRDLPLTFGTGTKLELKR
notes: Mouse IgG1 / kappa; also called 03AFN; Mouse x [PD-1_H] mAb (clone 09A) IgG1 / Kappa
B4 returned a Kd in experiment [1] of 0.46 nM. For the same molecule, the “KD (REF)/KD” value in experiment [2] came to 0.5.

B5: Mouse 08A (REF) (antibody, mouse IgG1, kappa, V domains shown)
VH: QVQLQQPGAELVKPGASVKLSCKASGYTFTSYYLYWMKQRPGQGLEWIGGVNPSNGGTNFSEKFKSKATLTVDKSSSTAYMQLSSLTSEDSAVYYCTRRDSNYDGGFDYWGQGTTLTVSS
VL: DIVLTQSPTSLAVSLGQRATISCRASKSVSTSGFSYLHWYQQKPGQPPKLLIFLASNLESGVPARFSGSGSGTDFTLNIHPVEEEDAATYYCQHSWELPLTFGAGTKLELKR
notes: Mouse IgG1 / kappa; also called 09AFF; parental mouse 08A antibody
As for B5, the Kd in experiment [1] was 0.24 nM. For the same molecule, the “KD (REF)/KD” value in experiment [2] worked out at 1.

B6: Mouse 08A N59Q (antibody, mouse IgG1, kappa, V domains shown)
VH: QVQLQQPGAELVKPGASVKLSCKASGYTFTSYYLYWMKQRPGQGLEWIGGVNPSNGGTQFSEKFKSKATLTVDKSSSTAYMQLSSLTSEDSAVYYCTRRDSNYDGGFDYWGQGTTLTVSS
VL: DIVLTQSPTSLAVSLGQRATISCRASKSVSTSGFSYLHWYQQKPGQPPKLLIFLASNLESGVPARFSGSGSGTDFTLNIHPVEEEDAATYYCQHSWELPLTFGAGTKLELKR
notes: Mouse IgG1 / kappa; also called 38AFL; Mouse x [PD-1_H] mAb (Clone 1.08 N59Q) IgG1 / Kappa
Take B6: the affinity in experiment [1], expressed as Kd, was 9.6 nM. In addition, in experiment [2], the “KD (REF)/KD” value came out at 0.04.

B7: Mouse 08A N59A (antibody, mouse IgG1, kappa, V domains shown)
VH: QVQLQQPGAELVKPGASVKLSCKASGYTFTSYYLYWMKQRPGQGLEWIGGVNPSNGGTAFSEKFKSKATLTVDKSSSTAYMQLSSLTSEDSAVYYCTRRDSNYDGGFDYWGQGTTLTVSS
VL: DIVLTQSPTSLAVSLGQRATISCRASKSVSTSGFSYLHWYQQKPGQPPKLLIFLASNLESGVPARFSGSGSGTDFTLNIHPVEEEDAATYYCQHSWELPLTFGAGTKLELKR
notes: Mouse IgG1 / kappa; also called 80AFH; Mouse x [PD-1_H] mAb (Clone 1.08 N59A) IgG1 / Kappa
For the molecule B7, the Kd in experiment [1] came out at 0.59 nM. Moreover, the “KD (REF)/KD” value in experiment [2] was 0.4.

B8: Mouse 08A N59E (antibody, mouse IgG1, kappa, V domains shown)
VH: QVQLQQPGAELVKPGASVKLSCKASGYTFTSYYLYWMKQRPGQGLEWIGGVNPSNGGTEFSEKFKSKATLTVDKSSSTAYMQLSSLTSEDSAVYYCTRRDSNYDGGFDYWGQGTTLTVSS
VL: DIVLTQSPTSLAVSLGQRATISCRASKSVSTSGFSYLHWYQQKPGQPPKLLIFLASNLESGVPARFSGSGSGTDFTLNIHPVEEEDAATYYCQHSWELPLTFGAGTKLELKR
notes: Mouse IgG1 / kappa; also called 39AFL; Mouse x [PD-1_H] mAb (Clone 1.08 N59E) IgG1 / Kappa
Take B8: binding in experiment [1] was put at a Kd of 5.9 nM. Also, in experiment [2], the “KD (REF)/KD” value amounted to 0.03.
